Test results as given in publication PMC10018359, “Allosteric effects of E. coli SSB and RecR proteins on RecO protein binding to DNA” (Nucleic Acids Research, 2023).

T1: RecO;RecR (Escherichia coli;Escherichia coli, UniProt P0A7H3;P0A7H6 1-242;1-201, |)
T1 sequence 1: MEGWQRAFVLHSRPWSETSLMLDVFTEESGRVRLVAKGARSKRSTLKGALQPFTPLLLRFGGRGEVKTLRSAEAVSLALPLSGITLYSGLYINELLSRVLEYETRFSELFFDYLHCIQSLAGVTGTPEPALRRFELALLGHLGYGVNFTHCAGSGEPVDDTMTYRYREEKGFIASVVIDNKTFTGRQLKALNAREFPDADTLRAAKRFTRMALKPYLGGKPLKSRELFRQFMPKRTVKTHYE
T1 sequence 2: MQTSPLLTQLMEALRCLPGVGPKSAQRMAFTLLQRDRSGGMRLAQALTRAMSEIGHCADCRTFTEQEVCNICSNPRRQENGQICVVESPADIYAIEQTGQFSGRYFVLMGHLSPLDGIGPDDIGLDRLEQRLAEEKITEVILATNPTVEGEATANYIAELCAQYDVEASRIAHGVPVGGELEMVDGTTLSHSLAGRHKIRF

T2: RecO (Escherichia coli, UniProt P0A7H3 1-242)
T2 sequence: T1 sequence 1

B1: Cy3-(dT)68 (ssDNA)
DNA: TTTTTTTTTTTTTTTTTTTTTTTTTTTTTTTTTTTTTTTTTTTTTTTTTTTTTTTTTTTTTTTTTTTT
B2: Escherichia coli RecR protein (natural protein, E. coli, UniProt P0A7H6 1-201, looked up)
chain: T1 sequence 2
notes: RecR, recombination mediator protein, E. coli; in the complex with RecO found here it is a tetramer (RecR4O); also called E. coli RecR; source: E. coli BL21 Rosetta 2(DE3)pLysS, plasmid pMCSG7, purified (Ni-NTA), His-tag cleaved with TEV protease
B3: Escherichia coli RecO protein (natural protein, E. coli, UniProt P0A7H3 1-242, looked up)
chain: T1 sequence 1
notes: RecO, recombination mediator protein of the RecF pathway, E. coli; also called E. coli RecO; source: E. coli BL21(DE3) pLysS, plasmid pMCSG7, purified (Ni-NTA, HiTrap Heparin HP) after His-tag cleavage with TEV protease
B4: (dT)70 (ssDNA)
DNA: TTTTTTTTTTTTTTTTTTTTTTTTTTTTTTTTTTTTTTTTTTTTTTTTTTTTTTTTTTTTTTTTTTTTTT
B5: Cy3-(dT)140 (ssDNA)
DNA: TTTTTTTTTTTTTTTTTTTTTTTTTTTTTTTTTTTTTTTTTTTTTTTTTTTTTTTTTTTTTTTTTTTTTTTTTTTTTTTTTTTTTTTTTTTTTTTTTTTTTTTTTTTTTTTTTTTTTTTTTTTTTTTTTTTTTTTTTTTT

What was measured:
[1] = target: SSB-Ct peptide C-terminal tail (Escherichia coli) (UniProt P0AGE0); assay: given as Ka; conditions: cited from earlier work
RecO;RecR [2] = target: T1, RecO;RecR; assay: AUC sedimentation velocity; no SSB-Ct; 6.3 S; Buffer BTP: 20 mM Bis-Tris propane pH 8.0, 50 mM NaCl, 25% (v/v) glycerol, 1 mM TCEP, 25 C; conditions: protein: recombinant;recombinant; tags: His-tag cleaved with TEV (pMCSG7);His-tag cleaved with TEV (pMCSG7); label: 3'-Cy3
[3] = target: T3, RecO;SSB-Ct peptide (P15) (Escherichia coli;Escherichia coli, UniProt P0A7H3;P0AGE0 1-242;, |); assay: AUC sedimentation velocity; 13.4 uM SSB-Ct; 1.9 S; Buffer BTP: 20 mM Bis-Tris propane pH 8.0, 50 mM NaCl, 25% (v/v) glycerol, 1 mM TCEP, 25 C; conditions: tags: His-tag cleaved with TEV (pMCSG7);; copies: 1;1; label: 3'-Cy3
[4] = target: T4, RecO;RecR;SSB-Ct peptide (P15) (Escherichia coli;Escherichia …, UniProt P0A7H3;P0A7H6;P0AGE0 1-242;1-201;, ||); assay: AUC sedimentation velocity; 13.4 uM SSB-Ct; 4.7 S; Buffer BTP: 20 mM Bis-Tris propane pH 8.0, 50 mM NaCl, 25% (v/v) glycerol, 1 mM TCEP, 25 C; conditions: tags: His-tag cleaved with TEV (pMCSG7);His-tag cleaved with TEV (pMCSG7);; label: 3'-Cy3
[5] = target: the molecule itself; assay: AUC; sedimentation equilibrium, 18 000, 23 000 and 28 000 rpm, 25°C, buffer BTP; RecO 2.24 uM, RecR 8.96 uM, SSB-Ct 13.4 uM, Cy3-(dT)15 0.56 uM; absorbance of the Cy3-DNA at 546 nm; one-species fit
[6] = target: B3; assay: AUC; sedimentation velocity, 42,000 rpm, 25°C, buffer BTP; RecO 2.24 uM, RecR 8.96 uM, Cy3-(dT)L (L = 15, 35, 68, 140) 0.56 uM, in the absence and presence of SSB-Ct 13.4 uM; absorbance of the Cy3-DNA at 546 nm; c(s) distributions; conditions: both partners purified
[7] = target: B2; assay: AUC; sedimentation equilibrium, 18 000, 23 000 and 28 000 rpm, 25°C, buffer BTP; RecO 2.24 uM, RecR 8.96 uM, SSB-Ct 13.4 uM, Cy3-(dT)15 0.56 uM; absorbance of the Cy3-DNA at 546 nm; one-species fit; conditions: both partners purified
RecO = target: T2, RecO; assay: light scattering; no SSB-Ct; onset at RecO/DNA 6; Buffer BTP: 20 mM Bis-Tris propane pH 8.0, 50 mM NaCl, 25% (v/v) glycerol, 1 mM TCEP, 25 C; conditions: protein: recombinant; tags: His-tag cleaved with TEV (pMCSG7)
RecO;RecR [8] = target: T1, RecO;RecR; assay: AUC sedimentation velocity; no SSB-Ct; 2.9 S; Buffer BTP: 20 mM Bis-Tris propane pH 8.0, 50 mM NaCl, 25% (v/v) glycerol, 1 mM TCEP, 25 C; conditions: protein: recombinant;recombinant; tags: His-tag cleaved with TEV (pMCSG7);His-tag cleaved with TEV (pMCSG7); label: 3'-Cy3
[9] = target: T3, RecO;SSB-Ct peptide (P15); assay: AUC sedimentation velocity and equilibrium; 13.4 uM SSB-Ct; 0.7 S; 31.8 kDa, 1 RecO per DNA; Buffer BTP: 20 mM Bis-Tris propane pH 8.0, 50 mM NaCl, 25% (v/v) glycerol, 1 mM TCEP, 25 C; conditions: tags: His-tag cleaved with TEV (pMCSG7);; copies: 1;1; label: 3'-Cy3
[10] = target: T4, RecO;RecR;SSB-Ct peptide (P15); assay: AUC sedimentation velocity and equilibrium; 13.4 uM SSB-Ct; 2.6 S; 131.1 kDa, RecR4O with one DNA; Buffer BTP: 20 mM Bis-Tris propane pH 8.0, 50 mM NaCl, 25% (v/v) glycerol, 1 mM TCEP, 25 C; conditions: tags: His-tag cleaved with TEV (pMCSG7);His-tag cleaved with TEV (pMCSG7);; label: 3'-Cy3
RecO;RecR [11] = target: T1, RecO;RecR; assay: AUC sedimentation velocity; no SSB-Ct; 5.7 S; Buffer BTP: 20 mM Bis-Tris propane pH 8.0, 50 mM NaCl, 25% (v/v) glycerol, 1 mM TCEP, 25 C; conditions: protein: recombinant;recombinant; tags: His-tag cleaved with TEV (pMCSG7);His-tag cleaved with TEV (pMCSG7); label: 3'-Cy3
[12] = target: T3, RecO;SSB-Ct peptide (P15); assay: AUC sedimentation velocity; 13.4 uM SSB-Ct; 2.1 S; Buffer BTP: 20 mM Bis-Tris propane pH 8.0, 50 mM NaCl, 25% (v/v) glycerol, 1 mM TCEP, 25 C; conditions: tags: His-tag cleaved with TEV (pMCSG7);; copies: 1;1; label: 3'-Cy3
[13] = target: T4, RecO;RecR;SSB-Ct peptide (P15); assay: AUC sedimentation velocity; 13.4 uM SSB-Ct; 4.8 S; Buffer BTP: 20 mM Bis-Tris propane pH 8.0, 50 mM NaCl, 25% (v/v) glycerol, 1 mM TCEP, 25 C; conditions: tags: His-tag cleaved with TEV (pMCSG7);His-tag cleaved with TEV (pMCSG7);; label: 3'-Cy3
RecO;RecR [14] = target: T1, RecO;RecR; assay: AUC sedimentation velocity; no SSB-Ct; 5.4 S; Buffer BTP: 20 mM Bis-Tris propane pH 8.0, 50 mM NaCl, 25% (v/v) glycerol, 1 mM TCEP, 25 C; conditions: protein: recombinant;recombinant; tags: His-tag cleaved with TEV (pMCSG7);His-tag cleaved with TEV (pMCSG7); label: 3'-Cy3
[15] = target: T4, RecO;RecR;SSB-Ct peptide (P15); assay: AUC sedimentation velocity; 13.4 uM SSB-Ct; 3.8 S; Buffer BTP: 20 mM Bis-Tris propane pH 8.0, 50 mM NaCl, 25% (v/v) glycerol, 1 mM TCEP, 25 C; conditions: tags: His-tag cleaved with TEV (pMCSG7);His-tag cleaved with TEV (pMCSG7);; label: 3'-Cy3
[16] = target: T3, RecO;SSB-Ct peptide (P15); assay: AUC sedimentation velocity and equilibrium; 13.4 uM SSB-Ct; 1.2 S; 70.1 kDa, 2 RecO per DNA; Buffer BTP: 20 mM Bis-Tris propane pH 8.0, 50 mM NaCl, 25% (v/v) glycerol, 1 mM TCEP, 25 C; conditions: tags: His-tag cleaved with TEV (pMCSG7);; copies: 1;1; label: 3'-Cy3
[17] = target: B3; assay: AUC; sedimentation equilibrium, 18 000, 23 000 and 28 000 rpm, 25°C, buffer BTP (pH 8.0, 50 mM NaCl, 25% glycerol, 1 mM TCEP); RecO 2.24 uM, SSB-Ct 13.4 uM, Cy3-(dT)15 or Cy3-(dT)35 0.56 uM; absorbance of the Cy3-DNA at 546 nm; one-species fit; conditions: both partners purified

Sequence of SSB-Ct peptide C-terminal tail (Escherichia coli) (P0AGE0 whole entry, looked up): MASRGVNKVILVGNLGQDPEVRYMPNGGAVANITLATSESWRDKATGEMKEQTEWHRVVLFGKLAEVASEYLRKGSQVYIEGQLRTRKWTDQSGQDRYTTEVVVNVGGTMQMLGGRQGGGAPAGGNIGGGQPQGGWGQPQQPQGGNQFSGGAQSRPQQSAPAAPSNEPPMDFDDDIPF

## RecO (from UniProt P0A7H3)
[1]
  Kd: 83.3 nM

## B1
RecO;RecR [2]
  binding result: binds
[3]
  binding result: binds
[4]
  binding result: binds

## B2
[5]
  stoichiometry N: 4
[6]
  binding result: binds

## B3
[7]
  stoichiometry N: 1 RecO per RecR tetramer

## B4
RecO
  binding result: binds

## TTTTTTTTTTTTTTT (ssDNA) [Cy3-(dT)15]
RecO;RecR [8]
  binding result: binds
[9]
  binding result: binds
[10]
  binding result: binds

## B5
RecO;RecR [11]
  binding result: binds
[12]
  binding result: binds
[13]
  binding result: binds

## TTTTTTTTTTTTTTTTTTTTTTTTTTTTTTTTTTT (ssDNA) [Cy3-(dT)35]
RecO;RecR [14]
  binding result: binds
[15]
  binding result: binds
[16]
  binding result: binds

## PSNEPPMDFDDDIPF (source: bought: WatsonBio (Houston, TX)) [SSB-Ct peptide, composed of the 15 C-terminal amino acids of E. coli SSB]
[17]
  binding result: binds
